Assay results published in patent publication US20180134794A1 (Regeneron, published 2018).

Columns and labels:
[1] = molecular target: T1, human MET (c-Met, hepatocyte growth factor receptor), endogenous on human cell lines (human, UniProt P08581 25-1390); assay: cell-based or functional assay
[2] = molecular target: T1, human MET (c-Met, hepatocyte growth …); assay: cell-based or functional assay; remark: listed apart in the source
[3] = molecular target: T1, human MET (c-Met, hepatocyte growth …); assay: flow cytometry, EBC-1 cells (endogenous MET), antibody 10 ug/ml
Method: (§1) After one additional wash with FACS buffer, samples were fixed with Cytofix (BD Biosciences, #554655), filtered with FACS buffer and run on an iQue flow cytometer (Intelicyte). Mean fluorescence intensity (MFI) data was determined using FlowJo software (FlowJo LLC).

[4] = molecular target: T1, human MET (c-Met, hepatocyte growth …); assay: flow cytometry, MKN-45 cells (endogenous MET), antibody 10 ug/ml
Method: as §1

[5] = molecular target: T1, human MET (c-Met, hepatocyte growth …); assay: flow cytometry, MDA-MB-231 cells (endogenous MET, low), antibody 10 ug/ml
Method: as §1

[6] = molecular target: T1, human MET (c-Met, hepatocyte growth …); assay: flow cytometry, A549 cells (endogenous MET), antibody 10 ug/ml
Method: as §1

[7] = molecular target: T1, human MET (c-Met, hepatocyte growth …); assay: flow cytometry, U87MG cells (endogenous MET, low), antibody 10 ug/ml
Method: as §1

[8] = molecular target: T1, human MET (c-Met, hepatocyte growth …); assay: flow cytometry, Hs746t cells (endogenous MET), antibody 10 ug/ml
Method: as §1

[9] = molecular target: T1, human MET (c-Met, hepatocyte growth …); assay: flow cytometry, SNU-5 cells (endogenous MET), antibody 10 ug/ml
Method: as §1

[10] = molecular target: T2, human MET (c-Met, HGFR) endogenously expressed on cell lines (human, UniProt P08581 25-1390); assay: cell-based or functional assay
[11] = molecular target: T2, human MET (c-Met, HGFR) endogenously …; assay: cell-based or functional assay; remark: listed apart in the source

T1 sequence (P08581 25-1390 limits assumed, form in doubt): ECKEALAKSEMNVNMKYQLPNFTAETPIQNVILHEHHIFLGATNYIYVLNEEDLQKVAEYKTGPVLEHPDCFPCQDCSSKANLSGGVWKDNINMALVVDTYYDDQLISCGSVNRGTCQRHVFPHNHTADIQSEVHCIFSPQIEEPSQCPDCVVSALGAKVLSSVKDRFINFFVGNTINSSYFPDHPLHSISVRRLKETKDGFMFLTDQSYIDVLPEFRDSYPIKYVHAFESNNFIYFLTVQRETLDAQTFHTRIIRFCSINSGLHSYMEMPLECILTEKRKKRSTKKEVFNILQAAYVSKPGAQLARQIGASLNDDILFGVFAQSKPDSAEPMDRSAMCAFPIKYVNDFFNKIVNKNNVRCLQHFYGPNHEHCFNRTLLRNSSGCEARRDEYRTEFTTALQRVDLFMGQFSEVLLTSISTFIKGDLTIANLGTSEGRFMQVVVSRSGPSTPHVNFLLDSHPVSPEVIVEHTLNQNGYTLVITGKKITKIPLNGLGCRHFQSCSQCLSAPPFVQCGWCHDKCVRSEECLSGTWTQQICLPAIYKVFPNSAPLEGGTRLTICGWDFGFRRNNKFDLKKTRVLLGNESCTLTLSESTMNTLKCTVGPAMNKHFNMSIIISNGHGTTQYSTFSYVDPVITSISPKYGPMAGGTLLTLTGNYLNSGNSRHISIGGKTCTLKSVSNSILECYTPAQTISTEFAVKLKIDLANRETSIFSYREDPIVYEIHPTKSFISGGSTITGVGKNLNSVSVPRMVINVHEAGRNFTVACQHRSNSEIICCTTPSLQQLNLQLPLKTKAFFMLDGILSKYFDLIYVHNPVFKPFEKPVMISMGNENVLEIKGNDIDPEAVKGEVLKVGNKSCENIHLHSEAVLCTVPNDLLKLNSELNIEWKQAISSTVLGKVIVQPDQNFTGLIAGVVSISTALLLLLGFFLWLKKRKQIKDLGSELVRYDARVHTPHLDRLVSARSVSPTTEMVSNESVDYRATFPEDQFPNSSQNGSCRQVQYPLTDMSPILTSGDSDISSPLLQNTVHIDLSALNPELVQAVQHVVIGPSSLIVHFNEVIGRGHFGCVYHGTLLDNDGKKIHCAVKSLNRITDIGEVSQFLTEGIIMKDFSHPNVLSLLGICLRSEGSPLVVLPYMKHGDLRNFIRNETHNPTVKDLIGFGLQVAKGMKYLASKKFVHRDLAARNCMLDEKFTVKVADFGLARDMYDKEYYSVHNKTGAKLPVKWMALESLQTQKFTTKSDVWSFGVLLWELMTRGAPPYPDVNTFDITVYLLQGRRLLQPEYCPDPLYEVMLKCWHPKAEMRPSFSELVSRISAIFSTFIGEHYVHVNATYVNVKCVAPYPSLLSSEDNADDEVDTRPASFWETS
T2 sequence (P08581 25-1390): as the sequence (P08581 25-1390 limits assumed, form in doubt) above

Binder	% Inhibition (HEK293/SRE-Luc Blocking Activity, 1 h mAb pre-bind) [1]	EC50 (Ligand (HGF)-Independent HEK293/SRE-Luc Activation) [1]	Fold Response (Ligand (HGF)-Independent HEK293/SRE-Luc Activation) [1]	IC50 (HEK293/SRE-Luc Blocking Activity, 1 h mAb pre-bind) [1]	further results
H4H13300P2 (antibody, human IgG4, V domains shown) VH: QVQLVESGGGVVQPGRSLRLSCAVSGFTFSSYGMHWVRQAPGKGLEWVANIWYDGTNDYYPYSVKGRFTISRDNSQNTLYLQMNSLRAEDTAVYYCAREDFINYRSFDYWGQGTLVTVSS VL: not shown	69%	0.48 nM	2.8 fold	0.12 nM	
H4H13311P2 (antibody, human IgG4, V domains shown) VH: QVQLVESGGGVVQPGRSLRLSCAASGFTFSSYAMHWVRQAPGRGLEWVAVIWHDGDVEYYVDSVKDRFTISRDNSKSTLYLQMNSLRAEDTALYYCAREAWDLLRPFDYWGQGTLVTVSS VL: not shown	62%	0.3 nM	5.2 fold	0.035 nM	
H4H14639D-Maytansinoid A (bispecific antibody, human IgG4, V domains shown, conjugated with SMCC-DM1 diastereomer (Maytansinoid A); residues and chain of attachment not stated) VH 1: EVQLVESGGGLVQPGTSLRLSCAASGFTFDDYAMHWVRQAPGKGLEWVSGITWNSYNIDYADSVKGRFTISRDNAKNSLYLQMNSLRAEDTALYYCAKDDDYSNYVYFDYWGQGTLVTVSS VH 2: EVQLVESGGGLVQPGGSLRLSCAASGFIVTTNYMTWLRQAPGKGLEWVSLIYSSGHTYYADSVKGRFTISRHNSKNTLYLQMDSLRAEDTAVYYCASAFAADVFDIWGQGTMVTVSS VL: not shown					IC50 (nM), 3-day in vitro cytotoxicity assay, MDA-MB-231 cells (low MET) [2]: > 100 nM; IC50 (nM), 3-day in vitro cytotoxicity assay, SNU-5 cells [2]: 0.4 nM; IC50 (nM), 3-day in vitro cytotoxicity assay, U87MG cells (low MET) [2]: 100 nM
H4H14634D (bispecific antibody, human IgG4, V domains shown) VH 1: QVQLQESGPGLVKPSETLSLTCTVSGDSISSYYWTWIRQPPGKGLEWIGYIFYRGGTTYNPSLKSRVTISVDTSKNQFSLKLRSVTAADTAVYYCARGDDLLVVTSVYWYIDLWGRGTLVTVSS VH 2: EVQLVESGGGLVQPGGSLRLSCAASGFIVTTNYMTWLRQAPGKGLEWVSLIYSSGHTYYADSVKGRFTISRHNSKNTLYLQMDSLRAEDTAVYYCASAFAADVFDIWGQGTMVTVSS VL: not shown	85%	0.09 nM	3.4 fold	0.0097 nM	
H4H14635D (bispecific antibody, human IgG4, V domains shown, human IgG4 Fc; also called No. 42; MET×MET bispecific antibody) VH 1: QVQLVESGGGVVQPGRSLRVSCVVSGFTFSSFGMHWVRQAPDKGLEWVAVIWYDGSNDYYSDSVKGRFTISRDNSKNTLFLQMNRLRAEDTAVYYCARANNWNRFDAFDLWGQGTMVTVSS VH 2: EVQLVESGGGLVQPGGSLRLSCAASGFIVTTNYMTWLRQAPGKGLEWVSLIYSSGHTYYADSVKGRFTISRHNSKNTLYLQMDSLRAEDTAVYYCASAFAADVFDIWGQGTMVTVSS VL: not shown	85%	1.4 nM	2.2 fold	0.19 nM	FACS Binding (MFI Fold Above Isotype Control) [3]: 263 fold; FACS Binding (MFI Fold Above Isotype Control) [4]: 183 fold; FACS Binding (MFI Fold Above Isotype Control) [5]: 11 fold; FACS Binding (MFI Fold Above Isotype Control) [6]: 12 fold; FACS Binding (MFI Fold Above Isotype Control) [7]: 18 fold; FACS Binding (MFI Fold Above Isotype Control) [8]: 39 fold; FACS Binding (MFI Fold Above Isotype Control) [9]: 477 fold
H4H14639D (bispecific antibody, V domains shown) VH 1: EVQLVESGGGLVQPGTSLRLSCAASGFTFDDYAMHWVRQAPGKGLEWVSGITWNSYNIDYADSVKGRFTISRDNAKNSLYLQMNSLRAEDTALYYCAKDDDYSNYVYFDYWGQGTLVTVSS VH 2: EVQLVESGGGLVQPGGSLRLSCAASGFIVTTNYMTWLRQAPGKGLEWVSLIYSSGHTYYADSVKGRFTISRHNSKNTLYLQMDSLRAEDTAVYYCASAFAADVFDIWGQGTMVTVSS VL: not shown					IC50 (read off the curve), inhibition of HGF-induced SRE-luciferase signal [10]: ~0.4 nM
H4H13312P2 (antibody, human IgG4, V domains shown) VH: EVQLVESGGGLVQPGGSLRLSCAASGFIVTTNYMTWLRQAPGKGLEWVSLIYSSGHTYYADSVKGRFTISRHNSKNTLYLQMDSLRAEDTAVYYCASAFAADVFDIWGQGTMVTVSS VL: not shown					EC50 (read off the curve), HGF-independent SRE-luciferase activation [11]: ~0.4 nM
H4H14640D (bispecific antibody, human IgG4, V domains shown) VH 1: QVQLVQSGTEVKEPGASVKVSCKASGYSFTTYGISWLRQAPGQGLEWMGWISTYNGDTISAQMLQDRVTLTADTSTRTAYMELRSLRSDDTAVYYCARGHEYDSLVYSYWGQGTLVTVSS VH 2: EVQLVESGGGLVQPGGSLRLSCAASGFIVTTNYMTWLRQAPGKGLEWVSLIYSSGHTYYADSVKGRFTISRHNSKNTLYLQMDSLRAEDTAVYYCASAFAADVFDIWGQGTMVTVSS VL: not shown	89%	6.8 nM	2.5 fold	0.52 nM	
H4H13319P2 (antibody, human IgG4, V domains shown) VH: QVQLVESGGGVVQPGRSLRLSCAASGFTFSSFAMHWVRQAPGKGLEWVAVIWYDGSNDYYAASVKGRFTISRDNSKNTLYLEMNRLRAEDTAVYHCARDNWNYWGGMDVWGQGTTVTVSS VL: not shown	67%	0.18 nM	4.8 fold	0.052 nM	
H4H13290P2 (antibody, human IgG4, V domains shown) VH: QVQLQESGPGLVKPSETLSLTCTVSGDSISSYYWTWIRQPPGKGLEWIGYIFYRGGTTYNPSLKSRVTISVDTSKNQFSLKLRSVTAADTAVYYCARGDDLLVVTSVYWYIDLWGRGTLVTVSS VL: not shown	56%	< 0.002 nM	9.8 fold	< 0.002 nM	
H4H13318P2 (antibody, human IgG4, V domains shown) VH: QVQLVESGGGVVQPGRSLRLSCVASGFSFSNFGMHWVRQAPGKGLEWVAIIWYDGSNKYYSDSVKGRFTISRDNSKNTLYLQMNSLRVDDTAVYYCARFDRWKFDAFDIWGQGTMVTVSS VL: not shown	77%		3.1 fold	0.1 nM	
H4H13299P2 (antibody, human IgG4, V domains shown) VH: EVQLVESGGGLVQPGGSLRLSCAASGFIFSNYEMNWVRQAPGKGLEWISYITSSGNMKYYADSVKGRFTISRDNDKNSLYLQMSSLRVEDTAVYYCVRGGRFLEWLTYYVMVVWGQGTTVTVSS VL: not shown	51%	0.0037 nM	14.4 fold		
H4H13309P2 (antibody, human IgG4, V domains shown) VH: QVQLVQSGTEVKEPGASVKVSCKASGYSFTTYGISWLRQAPGQGLEWMGWISTYNGDTISAQMLQDRVTLTADTSTRTAYMELRSLRSDDTAVYYCARGHEYDSLVYSYWGQGTLVTVSS VL: not shown	77%	0.39 nM	9.2 fold	0.2 nM	
H4H13331P2 (antibody, human IgG4, V domains shown) VH: QVQLQESGPGLVKSSETLSLTCTVSGGSIRNFYWSWLRQPPGKGLEWIGHINYNGGTDYNPSLKSRVTISVDTSKNQFSLNLNSVTAADTAVYYCARQRFYGMDVWGPGTTVTVSS VL: not shown	75%	0.0023 nM	7.1 fold	< 0.01 nM	
